Reference: US11807881B2, “Polypeptide, fusion polypeptide, and antibiotic against gram-negative bacteria comprising same” (priority 2020, dated 2023)

Tests used:
[1] = tested on: Pseudomonas aeruginosa PA01; assay: Galleria mellonella Pseudomonas aeruginosa infected model, viability; assay type: in vivo; details: PA01 50 CFU/larva
Method: The Pseudomonas aeruginosa killing ability of the endolysin LNT101 was also confirmed in vivo. As an animal model for the in vivo effectivity evaluation, Galleria mellonella was used. The Galleria mellonella model was divided into the healthy group (non-infection group), Pseudomonas aeruginosa infected group (drug non-administration group), 2 LNT101 administration groups in which LNT101 was administered into the infection model, Colistin administration group in which colistin was administered into the Pseudomonas aeruginosa infected model, and combination administration group in which LNT101 and colistin were administered in combination into the Pseudomonas aeruginosa infected model to progress an experiment, and 10 of Galleria mellonella per each group was used.
The Pseudomonas aeruginosa infected model was prepared by infecting Pseudomonas aeruginosa PA01 at the LD80 concentration, 50 CFU/larva, and LNT101 was administered at 0.6 μg/larva (3 mg/Kg) and 6 μg/larva (30 mg/Kg), respectively. Colistin was administered at 0.5 μg/larva (2.5 mg/Kg), and for administration in combination, Colistin at 0.5 μg/larva (2.5 mg/Kg) and LNT101 at 6 μg/larva (30 mg/Kg) were administered. […] In particular, in the LNT101 6 μg/larva (30 mg/Kg) administration group, the viability of 30% was confirmed.

Salmonella enteritidis = assay: Spot test (halo zone); assay type: cell-based; set-up: key: ‘◯’ means production of the halo zone; details: S. enteritidis ATCC 13076
Source text: (§1) In the present example, in order to investigate a target bacteria spectrum of the bacteriophage PBPA90 selected in the Examples 1.1 and 1.2 and endolysin LNT101 separated and purifying in the Example 1.3, the antibacterial activity against gram negative bacterium such as Pseudomonas aeruginosa ATCC13388, ATCC9027, ATCC10145, ATCC15692, ATCC15522, ATCC25619, ATCC27853, CCARM2134, CCARM2200, CCARM2029, CCARM2144, CCARM2298, CCARM2326, PR01957, E. coli ATCC8739, Enterobacter cloacae CCARM0252, Klebsiella pneumoniae KCTC2261, Klebsiella aerogenes CCARM16006, Campylobacter jejuni KCTC5327, Cronobacter sakazakii KCTC2949, Salmonella typhimurium ATCC14028, Salmonella enteritidis ATCC13076 was tested.
(§2) The target bacteria spectrum of the bacteriophage PBPA90 and endolysin LNT101 was confirmed by a spot test. For the spot test, bacterium sterilized in 4 ml top agar (1% Tryptone, 0.5% Yeast extract, 0.5% NaCl, 0.7% agar) of 1×10^11 CFU/200 μl were added and poured to a LB plate. After hardening the top agar, the bacteriophage PBPA90 10 μl (1×10^8 PFU/ml) or LNT101 10 μl (2 mg/ml) was spotted, and it was incubated at 37° C. for 18 hours.

Enterobacter cloacae [2] = assay: Spot test (halo zone); assay type: cell-based; set-up: key: ‘◯’ means production of the halo zone; details: E. cloacae CCARM 0252
Source text: as §1, §2

Klebsiella pneumoniae = assay: Spot test (halo zone); assay type: cell-based; set-up: key: ‘◯’ means production of the halo zone; details: K. pneumoniae KCTC 2261
Source text: as §1, §2

Salmonella typhimurium = assay: Spot test (halo zone); assay type: cell-based; set-up: key: ‘◯’ means production of the halo zone; details: S. typhimurium ATCC 14028
Source text: as §1, §2

E. coli = assay: Spot test (halo zone); assay type: cell-based; set-up: key: ‘◯’ means production of the halo zone; details: E. coli ATCC 8739
Source text: as §1, §2

Campylobacter jejuni = assay: Spot test (halo zone); assay type: cell-based; set-up: key: ‘◯’ means production of the halo zone; details: C. jejuni KCTC 5327
Source text: as §1, §2

Enterobacter cloacae [3] = assay: CFU reduction test; assay type: cell-based; details: E. cloacae CCARM 0252
Source text: (§3) In addition, that the LNT101 endolysin had the antibacterial ability in various gram negative bacterium was confirmed by a CFU reduction test, and the result was shown in Table 2 below.

Klebsiella aerogenes = assay: CFU reduction test; assay type: cell-based; details: K. aerugenes CCARM 16006
Source text: as §3

[4] = tested on: Acinetobacter baumannii ATCC 19606; assay: Acinetobacter baumannii systemic infection mouse model, viability; assay type: in vivo; details: ICR male mice; LNT103 20 mpk and 100 mpk, subcutaneous injection 1 hour and 4 hours after infection; comparative colistin 20 mpk
Method: For in vivo effectivity evaluation of the fusion polypeptide LNT103, the viability was confirmed in an Acinetobacter baumannii ATCC 19606 systemic infection mouse model was confirmed.
The process of progressing an animal experiment was as follows. Mice were used when ICR male 4-week-old mice were purchased and a one-week adaptation period was passed, and the weight was 20˜21 g at 5-6 weeks of age. The Acinetobacter bacteria were mixed with 10% mucin at 1:1, and 0.5 ml of 2×10^8 CFU/ml (5% mucin) of the bacterial solution was inoculated intraperitoneally into mice. In 1 hour and 4 hours after infection, LNT103 20 mpk and LNT103 100 mpk, and colistin 20 mpk as a comparative group were administered, respectively, through a subcutaneous injection.

| Molecule | viability of Galleria mellonella ([1]; LNT101 6 μg/larva (30 mg/Kg), 72 hours) | viability of Galleria mellonella ([1]; LNT101 0.6 or 6 μg/larva, Colistin 0.5 μg/larva, observation for 72 hours) | production of the halo zone (Salmonella enteritidis) | production of the halo zone (Enterobacter cloacae [2]) | production of the halo zone (Klebsiella pneumoniae) | production of the halo zone (Salmonella typhimurium) | production of the halo zone (E. coli) | production of the halo zone (Campylobacter jejuni) | CFU reduction (Enterobacter cloacae [3]) | CFU reduction (Klebsiella aerogenes) | viability for 96 hours [4] |
| --- | --- | --- | --- | --- | --- | --- | --- | --- | --- | --- | --- |
| LNT101: endolysin derived from bacteriophage PBPA90, amino acid sequence SEQ ID NO: 1 (259 aa), purified with 6× His tag (protein, 6xHis tag; synthetic_Endolysin LNT101) MGTVLKRGDRGSAVEDLQMKLRVAGYAVSADGIFGGDTEKAVRDFQASKALVVDGKVGPATLAELAKSATVPAKWEAIPFPTANKSRSAAMPTLNAVGAMTGTDSRLLATFASIESAFDYTVKASTSSATGWFQFLDATWDDMIKAHGSKYGIPKDPTRALRKDPRANALMGAEFLKGNAAVLRPVINREPSDTDLYLAHFLGAGGAKKFLSADQKTLGEVLFPKPAKANPSIFSNKGVPRTLAEIYKLFEDKVSKHRA | 30% | the viability was increased | ◯ | ◯ | ◯ | ◯ | ◯ | ◯ | ◯ (‘◯’ means reduction of 0.5 log CFU or more through the CFU reduction assay) | ◯ (‘◯’ means reduction of 0.5 log CFU or more through the CFU reduction assay) |  |
| LNT103: fusion polypeptide [Cecropin A]-[linker (GSGSGS)]-[endolysin LNT102]; SEQ ID NO: 15 (MAS, His tag) used in the tests (protein, synthetic_Fusion Polypeptide LNT103 with MAS, His tag, and extra sequence) MASKWKLFKKIEKVGQNIRDGIIKAGPAVAVVGQATQIAKGSGSGSMGTVLKRGDRGSAVEDLQMKLNVAGYNLSADGIFGGDTEKAVRDVQAGAGLVVDGKVGPKTLYAIAKSATVPAKWEAIPFPTANKSRSAAMPTLNAVGAMTGVDSRLLATFASIESAFDYTVKAKTSSATGWFQFLDATWDDMIKAYGSKYGIPKDPTRALRKDPRANALMGAEFIKGNAAVLRPVINREPSDTDLYLAHFLGAGGAKKFLSADQKTLGEVLFPKPAKANPSIFSNKGVPRTLAEIYKLFEDKVSKHRALEHHHHHH |  |  |  |  |  |  |  |  |  |  | higher viability compared to the non-administration group (control) and comparative group (colistin administration group) |
